This experiment deals with full-length human αIIbβ3 on CHO K1 cells (human, UniProt P08514 32-1039; P05106 27-788). In words: cell-based or functional assay.

B1: AGDV tetrapeptide (peptide)
peptide: AGDV
Take B1: the “EC50 of LIBS1 epitope exposure on CHO cells expressing αIIbβ3 (flow cytometry, 1 mM Mg2+ and 1 mM Ca2+)” value was determined as 1430 µM.

Source of the values: PMC4813479 (The Journal of Biological Chemistry, 2015).
